Reference: patent US20040259781A1 (Novartis, published 2004)

Assays:
[1] = biological target: Fibronectin (purified from horse serum) (horse) (UniProt Q28377); test: cell-based or functional assay
[2] = biological target: T1, Syndecan-1 overexpressed on T98G glioblastoma cells (mouse, UniProt P18828 23-311); test: GST pull-down of cell surface-bound FNIII13 and western blot, immunofluorescence
T1 construct: whole, on cells; also called T98G:S1
T1 sequence (looked up): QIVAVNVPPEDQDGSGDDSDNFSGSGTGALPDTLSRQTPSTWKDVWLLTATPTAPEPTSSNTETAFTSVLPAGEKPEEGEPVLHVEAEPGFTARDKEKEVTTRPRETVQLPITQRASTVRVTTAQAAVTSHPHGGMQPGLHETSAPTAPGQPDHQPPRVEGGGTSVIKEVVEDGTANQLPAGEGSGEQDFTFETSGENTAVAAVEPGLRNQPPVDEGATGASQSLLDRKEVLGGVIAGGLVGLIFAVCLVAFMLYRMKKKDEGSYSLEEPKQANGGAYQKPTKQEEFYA

[3] = scale: relative increase in cpm over cells plated on fibronectin

Fibronectin (purified from horse serum) (horse), sequence (Q28377 32-2477): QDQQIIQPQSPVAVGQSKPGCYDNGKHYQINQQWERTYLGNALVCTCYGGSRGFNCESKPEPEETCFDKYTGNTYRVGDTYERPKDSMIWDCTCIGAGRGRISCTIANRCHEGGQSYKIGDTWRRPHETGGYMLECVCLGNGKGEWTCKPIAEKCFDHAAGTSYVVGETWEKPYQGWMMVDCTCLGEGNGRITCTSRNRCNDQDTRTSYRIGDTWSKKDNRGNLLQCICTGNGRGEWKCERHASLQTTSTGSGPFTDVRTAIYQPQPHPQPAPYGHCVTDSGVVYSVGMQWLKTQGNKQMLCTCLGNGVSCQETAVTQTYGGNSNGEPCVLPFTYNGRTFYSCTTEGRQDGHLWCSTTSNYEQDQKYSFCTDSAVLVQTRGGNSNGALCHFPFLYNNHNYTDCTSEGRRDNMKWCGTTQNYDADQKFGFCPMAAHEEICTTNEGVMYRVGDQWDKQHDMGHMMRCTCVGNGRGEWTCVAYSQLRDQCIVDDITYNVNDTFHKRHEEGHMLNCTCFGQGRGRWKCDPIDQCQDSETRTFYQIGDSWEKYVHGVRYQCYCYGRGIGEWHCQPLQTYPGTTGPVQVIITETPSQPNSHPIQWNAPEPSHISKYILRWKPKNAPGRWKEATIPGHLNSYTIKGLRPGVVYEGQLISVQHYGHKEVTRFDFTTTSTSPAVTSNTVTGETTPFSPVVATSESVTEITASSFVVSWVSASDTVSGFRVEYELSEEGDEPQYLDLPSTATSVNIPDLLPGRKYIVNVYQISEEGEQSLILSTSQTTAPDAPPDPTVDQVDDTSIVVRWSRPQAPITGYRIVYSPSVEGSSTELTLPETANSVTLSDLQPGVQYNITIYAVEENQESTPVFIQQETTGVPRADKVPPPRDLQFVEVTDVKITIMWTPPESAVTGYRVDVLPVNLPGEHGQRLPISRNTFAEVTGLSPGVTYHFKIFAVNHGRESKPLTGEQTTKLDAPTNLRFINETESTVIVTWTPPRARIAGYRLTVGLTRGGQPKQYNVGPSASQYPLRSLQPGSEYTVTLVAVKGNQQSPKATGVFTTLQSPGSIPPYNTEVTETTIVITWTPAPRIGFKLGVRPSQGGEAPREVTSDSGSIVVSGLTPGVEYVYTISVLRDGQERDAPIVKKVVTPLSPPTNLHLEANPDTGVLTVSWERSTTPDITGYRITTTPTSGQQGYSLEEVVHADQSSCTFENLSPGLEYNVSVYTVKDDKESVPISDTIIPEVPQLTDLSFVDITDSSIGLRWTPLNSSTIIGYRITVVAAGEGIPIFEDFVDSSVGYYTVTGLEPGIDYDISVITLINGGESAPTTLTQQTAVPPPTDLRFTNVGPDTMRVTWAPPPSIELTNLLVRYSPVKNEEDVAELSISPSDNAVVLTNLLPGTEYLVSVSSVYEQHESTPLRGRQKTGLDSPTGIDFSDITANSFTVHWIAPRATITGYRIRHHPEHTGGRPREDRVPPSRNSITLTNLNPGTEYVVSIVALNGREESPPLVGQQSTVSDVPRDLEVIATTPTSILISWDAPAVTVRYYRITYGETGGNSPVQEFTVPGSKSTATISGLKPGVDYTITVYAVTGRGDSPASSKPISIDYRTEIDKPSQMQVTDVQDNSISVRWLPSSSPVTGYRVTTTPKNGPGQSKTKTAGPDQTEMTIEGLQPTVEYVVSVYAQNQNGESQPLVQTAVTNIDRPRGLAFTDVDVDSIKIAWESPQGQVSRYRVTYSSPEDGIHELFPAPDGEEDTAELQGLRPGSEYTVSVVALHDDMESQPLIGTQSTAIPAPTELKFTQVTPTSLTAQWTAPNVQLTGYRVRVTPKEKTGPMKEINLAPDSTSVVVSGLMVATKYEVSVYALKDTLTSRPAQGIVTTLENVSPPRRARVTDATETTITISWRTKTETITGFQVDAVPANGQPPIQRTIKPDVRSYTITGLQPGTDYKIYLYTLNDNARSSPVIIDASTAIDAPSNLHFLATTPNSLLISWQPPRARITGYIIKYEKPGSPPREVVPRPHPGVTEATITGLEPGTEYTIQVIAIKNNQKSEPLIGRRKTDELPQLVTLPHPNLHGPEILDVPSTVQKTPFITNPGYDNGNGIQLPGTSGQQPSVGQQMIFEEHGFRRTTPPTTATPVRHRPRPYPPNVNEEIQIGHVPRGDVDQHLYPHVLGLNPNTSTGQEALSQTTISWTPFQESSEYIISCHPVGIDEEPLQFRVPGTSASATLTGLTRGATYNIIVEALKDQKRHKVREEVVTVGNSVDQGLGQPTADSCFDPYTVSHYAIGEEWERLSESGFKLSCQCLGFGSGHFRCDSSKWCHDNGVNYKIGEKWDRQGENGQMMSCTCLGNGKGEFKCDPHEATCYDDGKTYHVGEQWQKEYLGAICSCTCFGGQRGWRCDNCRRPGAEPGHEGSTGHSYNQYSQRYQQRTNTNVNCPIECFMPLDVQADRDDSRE

## Full length chicken tenascin-C TN260 (from UniProt P10039 34-1808)
[1]
  CHO-B2 cells (ITS) attached on FN/TN substratum, 20 h (% of cells attached on fibronectin): 31.5
  CHO-B2α27 cells (ITS) attached on FN/TN substratum, 20 h (% of cells attached on fibronectin): 45.1
  CHO-K1 cells (ITS) attached on FN/TN substratum, 20 h (% of cells attached on fibronectin): 37.9
  MDA MB 435 cells (insulin) attached on FN/TN substratum, 20 h (% of cells attached on fibronectin): 62.2
  MDA MB 435 cells attached on FN/TN substratum, 1 h (% of cells attached on fibronectin): 24.5
  MDA-MB435 cell number on fibronectin/tenascin-C against fibronectin, 51 h: 24 % more cells
  MDA-MB435 cell number on fibronectin/tenascin-C against fibronectin, 75 h: 33 % more cells
  T98G cells (PDGF-BB) attached on FN/TN substratum, 20 h (% of cells attached on fibronectin): 50.4
  T98G cells attached on FN/TN substratum, 1 h (% of cells attached on fibronectin): 31.9
  T98G cells partially spread on mixed fibronectin/tenascin-C substratum after 20 h: 45%
[1]; [3]
  DNA replication (3H-thymidine incorporation) of CHO-B2 cells on FN/TN: 2.6
  DNA replication (3H-thymidine incorporation) of CHO-B2α27 cells on FN/TN: 2.5
  DNA replication (3H-thymidine incorporation) of CHO-K1 cells on FN/TN: 2.3
  DNA replication (3H-thymidine incorporation) of MDA MB 435 cells on FN/TN: 1.8
  DNA replication (3H-thymidine incorporation) of T98G cells on FN/TN: 3

## Syndecan-4 overexpressed on T98G glioblastoma cells (receptor)
[1]
  attachment of syndecan-4 overexpressing T98G:S4 cells on fibronectin/tenascin-C substratum: 64.7%

B1: Recombinant 13th fibronectin type III repeat (FNIII13) (other)
chain: NVSPPRRARVTDATETTITISWRTKTETITGFQVDAVPANGQTPIQRTIKPDVRSYTITGLQPGTDYKIYLYTLNDNARSSPVVIDAST
notes: Obtained as in Bloom et al 1999; also called GST-tagged FNIII13; not shown: GST tag and His tag (pulled down with glutathione Sepharose, detected with anti-GST and anti-His, isolated on Ni-NTA)
[2]
  binding result: no binding
